Reference: patent publication US20250034594A1, “RNA-GUIDED GENOME RECOMBINEERING AT KILOBASE SCALE” (THE BOARD OF TRUSTEES OF THE LELAND STANFORD JUNIOR …, priority 2021, published 2025)

B1: SSAP_279: SEQ ID NO: 448; Dorea sp. 42_8 (protein, listed as Dorea sp.)
chain: AVNNSLAKRDQSMKLSVYLQNDAVKKQINQVVGGKNGTRFISSIVSAVQSTPALQECTSPSIVNAALLGEALNLSPSPQLGQFYMVPFDNRKKGCKEAQFQLGYKGYIQLAERSGYYKKLNVLAIKEGELIRYDPLDEEIEVELIDDDVIREETPAMGYYAMFEYENGFCIQQKWRSEDFGTFRAGQNSGKGSLEVFFFLVQRF
B2: SSAP_114: SEQ ID NO: 283; Methylomonas rhizoryzae (protein, listed as Methylomonas rhizoryzae)
chain: SELLSALNAPETQKPQTLPAMLKQHQPRFKAIAPRDVDVTRFSAALMADVRSNQKLAECNPMTVLGAFIRSTQLGLEPGSQLGQAYFVPFKGECQLVIGYRGMIELAYRSGKVASISARTVYENDVFEWELGTDERITHKPATGDRGALVAVYAMAKLTTGGIHFEVLDLAEIEKAKRASKSSSFGPWKDHFEEMAKKTAIRRLFKYLPVGTDLTRAVALDEKAESGSQQNDIEAETVLDGEFYPAGGGNDG
B3: SSAP_71: SEQ ID NO: 240 (protein)
chain: SNNELLAKPVEFEVNGEAVKLTGKTVKNFLVSGNGEVSDQEVVMFINLCKYQKLNPFLNEAYLVKFKSKSGPDKPAQVIVSKEAFMKRAEKHPNYEGFEAGIIVERDGQLVDIEGAIKLTNDKLVGGWARVYRSDRQKPITTRISLSEFSKGQSTWNSMPLTMIRKSAIVNAQREAFPETLGALYTEDDAKLDTTSSHDQEQVIEQEIKTKANQEVIDVEYTEESEQKSPQQEQTETTQAGPGF
B4: SSAP_66: SEQ ID NO: 235 (protein)
chain: TNQLAHKDFFNTPAVKQKFQEVLNGNERQFTASLLSIVNNNKLLARASNTSIMTAAMKAAVLNLPIEPSLGFAYIVPYGQDAQFQLGYKGLIQLAIRSGQFKAINSGKVYKAQFKSYDPLFETLDIDFTQPEDEVYGYFATFELVNGFKKLTFWTKEQAESHGKRFSKTYAKGPWSTDFDAMAQKTVLKSILSKYAPLSTEMQEGLISDNQTEEVETDPIDVTPKNEDTQTLLSDLMSDEAESETEKV
B5: SSAP_187: SEQ ID NO: 356; Staphylococcus warneri (protein, listed as Staphylococcus warneri)
chain: ATQNDFKNQITDKKENKPQQSTNPRQVASDLLERMKPEIAKALPAHMSQDRMTRIALSAVNSNPKLSEVILNNPTSFLGALMQSAQLGLEPNTNLGHAYLIPYGNIVQLQLGYLGLLELAYRSGKYQKIMAMPVYKDDFFEYQYGTDEKLNHIPAQQQTGDAVGYYAFYKLTNGGTHFVYWSRQKMNMHQQQYSKGGNVWRNNFDAMALKTVIKDVLKYAPKSIEMGEAVTSDNNNFDFKDGGDIIDVTDYETEEN
B6: SSAP_233: SEQ ID NO: 402; Actinoplanes italicus (protein, listed as Actinoplanes italicus)
chain: PETIANAVAQRDQSPTALVADYRNDFAAVLPSHLPPATFVRLAQGVLRRDQNLMRTAMNNPGSLMTAMLDCARLGHEPGTPAYYFVPIKGAIEGWEGYRGVIERIYRAGAVQSVRAEVVRENDFYEYEEGMPHPIHRYERFASPEQRGPLLGVWAYAVMLDGGMSRPVEMGREEVLAHRDMNPSNNRSDSPWKKWERSMWLKCAVHELEKWVPSSTEYRREIARMSAPQPAAAAAPVTYVPPQVGQRDAIEGEVAEDWPEPAEVPGGAQ
B7: SSAP_91: SEQ ID NO: 260; Proteus mirabilis (protein, listed as Proteus mirabilis)
chain: SNPPLAQADLQKTQGTEVKTKTKDQQLIHFINQPSMKTQLAAALPRHMTPDRMIRIVTTEIRKTPALANCDMQSFIGAVVQCSQLGLEPGNALGHAYLLPFGNGKAKSGQSNVQLIIGYRGMIDLARRSNQIISISARTVRQGDSFHFEYGLNENLTHVPGENEDSPITHVYAVARLKDGGVQFEVMTHNQIEKVRASSKAGQNGPWVSHWEEMAKKTVIRRLFKYLPVSIEMQKAVILDEKAEANVDQENASVFEGEFEEVGSNGN
B8: SSAP_11: SEQ ID NO: 180; Bet Lactococcus phage phiLC3 (protein, listed as Lactococcus lactis)
chain: ANEIDIYDAKNLNTATVKKFLKGGGQASDEELAMLLAISRNQNMNPFMKEVYFIKYGSAAAQIVVSRDFYRKRAFQNPNFAGIEVGVIVLNKDGVLEHNEGTFKTKDQELVGAWARVHLKNTEIPVYVAVSYDEYVQMKNGQPNSMWTNKPCTMLGKVAESQALRMAFPAEFSGTYGEEEYPEPEKEPREVNGVKEPDRAQIESFDKENYAARKIEELKEKAQPQKEFVEEIGEAIDEITAEDF
B9: SSAP_77: SEQ ID NO: 246 (protein)
chain: TNNQLVEAKGDFLTNPQLLNSGIIRKYLDPQGKASDEELAYFIAQAKAQNLNPFTKEIYFIKYGTQPAQIVTAKSAFEKKADSHPQFDGKEAGVIYLLDGEIKYSKGAFIPKGAEILGGWAKVYRKDRTYPTETEVSFEEYDNSKIRARVKELTQQGKDVTYPVMNSYGKPIGENNWDTMPCVMIRKVALVSAYREAFPAELGASYEADEIQLDNTPKDITPQENREDVIARKMAQIEQFNKEQAHTDPEPTQTEEPIQGELLDGELEY

Experiments:
Format in all cases: cell-based
[1] = tested on: gene editing with Cas9 and dCas9; test: Screen of 322 new SSAP proteins, activity across all experiments (Cas9 and dCas9, Table 5); design: scale not given here
How it was run: (§1)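 Sequence-mined SSAPs (n=322), synthesized; editing activity screened with Cas9 or dCas9.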

[2] = tested on: gene editing with dCas9; test: Screen of 322 new SSAP proteins, gene editing activity with dCas9 (Table 5); design: dCas9 with SSAP activity: scale not given here
How it was run: as §1

[3] = tested on: gene editing with Cas9; test: Screen of 322 new SSAP proteins, gene editing activity with Cas9 (Table 5); design: Cas9 with SSAP activity: scale not given here
How it was run: as §1

Molecule	Activity across all experiments [1]	dCas9 with SSAP activity [2]	dCas9 with SSAP activity (normalized) [2]	Cas9 with SSAP activity [3]	Cas9 with SSAP activity (normalized) [3]
B1	−6.593	−10.362	−2.349	−2.825	−3.398
B2	−9.340	−10.925	–	−7.755	−1.412
B3	−1.249	−0.701	−0.555	−1.797	−2.283
B4	0.082	−0.205	−0.040	0.370	0.407
B5	−0.120	−0.498	−0.164	0.257	0.239
B6	−1.424	−0.220	−0.063	−2.628	−0.424
B7	0.114	−0.407	−0.170	0.635	0.826
B8	−1.223	−0.655	−0.866	−1.791	−0.870
B9	−10.167	−10.167	–	−10.167	–
